Assay [1] addresses flagellin on flagellin-expressing Pseudomonas aeruginosa wild type bacteria (Pseudomonas aeruginosa). Put plainly: cell-based or functional assay.
Assay [2] has as its target MUC1-ED on Ad-NEU1-infected airway epithelial cells (A549 cells; SAECs), desialylated by overexpressed NEU1 (human) (UniProt P15941). The experiment in a line: cell-based or functional assay.

“E. coli-expressed deglycosylated MUC1-ED (from E. coli transformed with pMUC1) (from UniProt P15941 24-1097) (receptor)” came in with a reduction of Pa adhesion to A549 monolayers, against the empty vector control in assay [1] of 93%. For the substance “MUC1-ED from supernates of airway ECs cultured with the O-glycosylation inhibitor GalNAc-O-bn (from UniProt P15941 24-1158) (receptor)”, in assay [1], the reduction of Pa adhesion to A549 monolayers, against its control was found to be 88%.

In assay [1], “desialylated MUC1-ED in bronchoalveolar lavage fluids (BALFs) from Pa-colonized patients (from UniProt P15941 24-1158) (receptor)” registered an inhibition of Pa adhesion to A549 cells, against BALFs from noncolonized subjects of 52.9% and an inhibition of Pa adhesion to A549 cells, against BALFs from patients colonized with nonPa microorganisms of 42.1%. In assay [1], “desialylated shed MUC1-ED from culture supernates of Ad-NEU1-infected A549 cells (from UniProt P15941 24-1158) (receptor)” yielded an MUC1-ED concentrations capable of inhibiting Pa adhesion in vitro of under 0.63 µg/mL and a reduction of Pa adhesion to A549 monolayers, against MUC1-ED from Ad-GFP-infected ECs of 65%. Regarding “flagellin on flagellin-expressing Pseudomonas aeruginosa wild type bacteria (ligand)”, in assay [2], the Pa adhesion to Ad-NEU1-infected A549 cells (CFUs bound), against Ad-GFP-infected ECs is 2 fold and the Pa adhesion to Ad-NEU1-infected SAECs (CFUs bound), against Ad-GFP-infected SAECs amounted to 3.4 fold. Turning to “shed MUC1-ED from culture supernates of flagellin-stimulated A549 cells (from UniProt P15941 24-1158) (receptor)”, the MUC1-ED concentrations capable of inhibiting Pa adhesion in vitro in assay [1] is under 0.63 µg/mL.
